From patent publication US20250101098A1 (R P SCHERER TECHNOLOGIES, published 2025)
Changes are numbered by the printed parent chain.

B1: Nectin-4 5D9 VH1/VL1 (antibody, V domains shown)
VH: QVQLKESGPGLVQPSETLSLTCTVSGFSITNYGVHWIRQSPGKGLEWLGVIWSGGSTDYNAAFVSRVTISRDNSKSQVFFKLNSVQADDTAVYYCARSGKWYYFDYWGQGTTVTVSS
VL: DIQMTQSPASLSASVGDTVTITCRASQNIYSNLAWYQQKQGKSPQLLVYAATNLADGVPSRFSGSGSGTQYTLKINSLQSEDFGTYYCQHFWGTPTFGGGTKVEIK
notes: Humanized; also called 5D9 VH variant 1 / 5D9 VL variant 1
B2: Nectin-4 5D9 VH1/VL2 (antibody, V domains shown)
VH: B1 VH
VL: B1 VL with A9S, S43A, Q45K, Q70D, Y71F, S80P, G84A
notes: Humanized; also called 5D9 VH variant 1 / 5D9 VL variant 2
B3: Nectin-4 5D9 VH1/VL3 (antibody, V domains shown)
VH: B1 VH
VL: DIQMTQSPSSLSASVGDRVTITCRASQSIYSNLAWYQQKPGKAPKLLVYAATNLASGVPSRFSGSGSGTDFTLTISSLQPEDFATYYCQHFWGTPTFGGGTKVEIK
notes: Humanized; also called 5D9 VH variant 1 / 5D9 VL variant 3
B4: Nectin-4 5D9 VH1/VL4 (antibody, V domains shown)
VH: B1 VH
VL: B3 VL with Q27E, S28N, S56D, F71Y
notes: Humanized; also called 5D9 VH variant 1 / 5D9 VL variant 4
B5: Nectin-4 5D9 VH1/VL5 (antibody, V domains shown)
VH: B1 VH
VL: B3 VL with A55Q
notes: Humanized; also called 5D9 VH variant 1 / 5D9 VL variant 5
B6: Nectin-4 5D9 VH2/VL1 (antibody, V domains shown)
VH: B1 VH with K5Q, Q13K, S40P, A62S, F63L, N73T, V78F, F80L
VL: B1 VL
notes: Humanized; also called 5D9 VH variant 2 / 5D9 VL variant 1
B7: Nectin-4 5D9 VH2/VL2 (antibody, V domains shown)
VH: B1 VH with K5Q, Q13K, S40P, A62S, F63L, N73T, V78F, F80L
VL: B3 VL with R18T, S28N, P40Q, S56D, T74K, S76N
notes: Humanized; also called 5D9 VH variant 2 / 5D9 VL variant 2
B8: Nectin-4 5D9 VH3/VL3 (antibody, V domains shown)
VH: QVQLQESGPGLVKPSETLSLTCTVSGGSITNYGVHWIRQPPGKGLEWLGVIWSGGSTDYNPSLKSRVTISVDTSKNQFSLKLSSVTAADTAVYYCARSGKWYYFDYWGQGTLVTVSS
VL: B3 VL
notes: Humanized; also called 5D9 VH variant 3 / 5D9 VL variant 3
B9: Nectin-4 5D9 VH2/VL3 (antibody, V domains shown)
VH: B1 VH with K5Q, Q13K, S40P, A62S, F63L, N73T, V78F, F80L
VL: B3 VL
notes: Humanized; also called 5D9 VH variant 2 / 5D9 VL variant 3
B10: Nectin-4 5D9 VH2/VL5 (antibody, V domains shown)
VH: B1 VH with K5Q, Q13K, S40P, A62S, F63L, N73T, V78F, F80L
VL: B3 VL with A55Q
notes: Humanized; also called 5D9 VH variant 2 / 5D9 VL variant 5
B11: Nectin-4 5D9 VH3/VL2 (antibody, V domains shown)
VH: B8 VH
VL: B3 VL with R18T, S28N, P40Q, S56D, T74K, S76N
notes: Humanized; also called 5D9 VH variant 3 / 5D9 VL variant 2
B12: Nectin-4 5D9 VH3/VL4 (antibody, V domains shown)
VH: B8 VH
VL: B3 VL with Q27E, S28N, S56D, F71Y
notes: Humanized; also called 5D9 VH variant 3 / 5D9 VL variant 4
B13: Nectin-4 5D9 VH3/VL5 (antibody, V domains shown)
VH: B8 VH
VL: B3 VL with A55Q
notes: Humanized; also called 5D9 VH variant 3 / 5D9 VL variant 5
B14: Nectin-4 5D9 VH4/VL3 (antibody, V domains shown)
VH: B8 VH with E6Q, G27F, I29L, I37V, V67L, V71R, F78V, L80F, L82M
VL: B3 VL
notes: Humanized; also called 5D9 VH variant 4 / 5D9 VL variant 3
B15: Nectin-4 5D9 VH4/VL5 (antibody, V domains shown)
VH: B8 VH with E6Q, G27F, I29L, I37V, V67L, V71R, F78V, L80F, L82M
VL: B3 VL with A55Q
notes: Humanized; also called 5D9 VH variant 4 / 5D9 VL variant 5; Nectin-4 VH4/VL5
B16: Nectin-4 5D9 VH5/VL2 (antibody, V domains shown)
VH: B8 VH with I29L, I37V, L48I, D58N, V71R, F78V
VL: B3 VL with R18T, S28N, P40Q, S56D, T74K, S76N
notes: Humanized; also called 5D9 VH variant 5 / 5D9 VL variant 2
B17: Nectin-4 5D9 VH5/VL3 (antibody, V domains shown)
VH: B8 VH with I29L, I37V, L48I, D58N, V71R, F78V
VL: B3 VL
notes: Humanized; also called 5D9 VH variant 5 / 5D9 VL variant 3
B18: Nectin-4 5D9 VH5/VL4 (antibody, V domains shown)
VH: B8 VH with I29L, I37V, L48I, D58N, V71R, F78V
VL: B3 VL with Q27E, S28N, S56D, F71Y
notes: Humanized; also called 5D9 VH variant 5 / 5D9 VL variant 4
B19: Nectin-4 5D9 VH5/VL5 (antibody, V domains shown)
VH: B8 VH with I29L, I37V, L48I, D58N, V71R, F78V
VL: B3 VL with A55Q
notes: Humanized; also called 5D9 VH variant 5 / 5D9 VL variant 5
B20: Nectin-4 5D9 VH2/VL4 (antibody, V domains shown)
VH: B1 VH with K5Q, Q13K, S40P, A62S, F63L, N73T, V78F, F80L
VL: B3 VL with Q27E, S28N, S56D, F71Y
notes: Humanized; also called 5D9 VH variant 2 / 5D9 VL variant 4
B21: Nectin-4 5D9 VH3/VL1 (antibody, V domains shown)
VH: B8 VH
VL: B1 VL
notes: Humanized; also called 5D9 VH variant 3 / 5D9 VL variant 1
B22: Nectin-4 5D9 VH4/VL1 (antibody, V domains shown)
VH: B8 VH with E6Q, G27F, I29L, I37V, V67L, V71R, F78V, L80F, L82M
VL: B1 VL
notes: Humanized; also called 5D9 VH variant 4 / 5D9 VL variant 1; Nectin-4 VH4/VL1

molecular target: T1, recombinant human Nectin-4-His protein (human, UniProt Q96NY8 32-349); test: ELISA, coated antigen
T1 construct: Rescreening antigen and bought ELISA antigen are treated as one molecule; also called human Nectin-4-His tagged; Ag1; not shown: His tag
T1 sequence: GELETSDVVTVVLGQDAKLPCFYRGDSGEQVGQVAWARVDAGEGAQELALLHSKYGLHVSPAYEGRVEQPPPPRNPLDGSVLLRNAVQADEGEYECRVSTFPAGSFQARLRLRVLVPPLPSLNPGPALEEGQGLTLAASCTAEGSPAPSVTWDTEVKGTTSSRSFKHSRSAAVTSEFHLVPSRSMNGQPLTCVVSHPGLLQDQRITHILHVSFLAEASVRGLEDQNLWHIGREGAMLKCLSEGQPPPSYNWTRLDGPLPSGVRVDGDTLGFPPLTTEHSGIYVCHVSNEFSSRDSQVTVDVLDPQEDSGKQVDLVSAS

Compared with B1, B2 is 1.6-fold higher in EC50: 0.225 nM for the first, 0.368 nM for the second. The first is the more potent here.

B3 and B4 are within 1.5-fold of each other in EC50: 0.321 nM for the first, 0.228 nM for the second.

B5 and B6 are within 1.5-fold of each other in EC50: 0.346 nM for the first, 0.279 nM for the second.

Going from B7 to B8, the EC50 falls from 172 nM to 23.9 nM (7.2-fold).

Going from B9 to B10, the EC50 falls from 108 nM to 14.7 nM (7.3-fold). The second is the more potent here.

Going from B11 to B12, the EC50 rises from 8.62 nM to 43600 nM (5100-fold).

First: B13
Second: B14
The EC50 of the first is 35-fold higher: 7.23 nM for the first, 0.204 nM for the second. The second is the more potent here.

Compared with B15, B16 is 11-fold higher in EC50: 0.195 nM for the first, 2.06 nM for the second.

Compared with B17, B18 is 16-fold higher in EC50: 0.702 nM for the first, 11.5 nM for the second.

First: B19
Second: B20
The EC50 of the first is 73-fold higher: 56.1 nM for the first, 0.765 nM for the second.

Compared with B21, B22 is lower in EC50: greater than 20 nM for the first, 0.212 nM for the second.

molecular target: T2, human nectin-4 protein expressed on the surface of cells (human, UniProt Q96NY8 32-510); test: cell-based or functional assay
T2 sequence: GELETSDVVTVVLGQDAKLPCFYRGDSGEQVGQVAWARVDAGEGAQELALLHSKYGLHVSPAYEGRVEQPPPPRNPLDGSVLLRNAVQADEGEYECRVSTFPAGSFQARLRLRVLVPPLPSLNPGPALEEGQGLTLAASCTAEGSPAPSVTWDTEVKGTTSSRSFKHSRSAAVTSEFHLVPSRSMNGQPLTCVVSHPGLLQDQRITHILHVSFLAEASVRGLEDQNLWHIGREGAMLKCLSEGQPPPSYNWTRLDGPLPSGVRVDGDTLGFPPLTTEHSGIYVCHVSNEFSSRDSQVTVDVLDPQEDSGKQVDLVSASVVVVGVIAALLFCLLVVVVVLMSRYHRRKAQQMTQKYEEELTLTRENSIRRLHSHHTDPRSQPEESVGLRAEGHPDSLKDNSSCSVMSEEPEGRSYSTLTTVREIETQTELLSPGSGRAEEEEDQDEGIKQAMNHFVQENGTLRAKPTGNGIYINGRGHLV

First: B1
Second: B2
The “Cell kill IC50, HekNectin4” value of the first is 13-fold lower: 0.249 nM for the first, 3.35 nM for the second.

Going from B3 to B4, the “Cell kill IC50, HekNectin4” value falls from 2.94 nM to 0.277 nM (11-fold).

Compared with B5, B6 is 2.8-fold higher in “Cell kill IC50, HekNectin4” value: 1.41 nM for the first, 3.93 nM for the second.

Going from B7 to B8, the “Cell kill IC50, HekNectin4” value falls from 55.5 nM to 27.1 nM (2-fold).

First: B9
Second: B10
The “Cell kill IC50, HekNectin4” value of the first is 5.4-fold lower: 33.7 nM for the first, 182 nM for the second.

B11 and B12 are within 1.5-fold of each other in “Cell kill IC50, HekNectin4” value: 54.8 nM for the first, 41.1 nM for the second.

Going from B13 to B14, the “Cell kill IC50, HekNectin4” value falls from 40 nM to 0.333 nM (120-fold).

Compared with B15, B16 is 180-fold higher in “Cell kill IC50, HekNectin4” value: 0.269 nM for the first, 49.6 nM for the second.

B17 and B18 are within 1.5-fold of each other in “Cell kill IC50, HekNectin4” value: 15.6 nM for the first, 22.1 nM for the second.

Compared with B19, B20 is 1.9-fold lower in “Cell kill IC50, HekNectin4” value: 33.5 nM for the first, 17.8 nM for the second.

First: B21
Second: B22
The “Cell kill IC50, HekNectin4” value of the first is 400-fold higher: 73.3 nM for the first, 0.182 nM for the second.

First: B1
Second: B2
The “Cell kill IC50, MDA-MB468” value of the first is 7.3-fold lower: 1.42 nM for the first, 10.3 nM for the second.

First: B3
Second: B4
The “Cell kill IC50, MDA-MB468” value of the first is 2-fold higher: 10.3 nM for the first, 5.17 nM for the second.

Going from B5 to B6, the “Cell kill IC50, MDA-MB468” value rises from 10.2 nM to 21.4 nM (2.1-fold).

B7 and B8 are within 1.5-fold of each other in “Cell kill IC50, MDA-MB468” value: 19.3 nM for the first, 15.6 nM for the second.

Going from B9 to B10, the “Cell kill IC50, MDA-MB468” value rises from 21.4 nM to 252 nM (12-fold).

Compared with B11, B12 is 2.3-fold higher in “Cell kill IC50, MDA-MB468” value: 17.7 nM for the first, 40.5 nM for the second.

First: B13
Second: B14
The “Cell kill IC50, MDA-MB468” value of the first is 12-fold higher: 43.3 nM for the first, 3.71 nM for the second.

First: B15
Second: B16
The “Cell kill IC50, MDA-MB468” value of the first is 4.5-fold lower: 3.93 nM for the first, 17.5 nM for the second.

Compared with B17, B18 is 1.5-fold lower in “Cell kill IC50, MDA-MB468” value: 16.6 nM for the first, 11 nM for the second.

B19 and B20 are within 1.5-fold of each other in “Cell kill IC50, MDA-MB468” value: 24 nM for the first, 27 nM for the second.

First: B21
Second: B22
The “Cell kill IC50, MDA-MB468” value of the first is 39-fold higher: 41.6 nM for the first, 1.08 nM for the second.

Going from B1 to B2, the “Cell kill IC50, SKBR3” value falls from 15 nM to 9.85 nM (1.5-fold).

B3 and B4 are within 1.5-fold of each other in “Cell kill IC50, SKBR3” value: 9.36 nM for the first, 9.02 nM for the second.

B5 and B6 are within 1.5-fold of each other in “Cell kill IC50, SKBR3” value: 10.1 nM for the first, 14.7 nM for the second.

B7 and B8 are within 1.5-fold of each other in “Cell kill IC50, SKBR3” value: 14.4 nM for the first, 10.6 nM for the second.

First: B9
Second: B10
The “Cell kill IC50, SKBR3” value of the first is 15-fold lower: 15.9 nM for the first, 234 nM for the second.

Compared with B11, B12 is 1.7-fold higher in “Cell kill IC50, SKBR3” value: 15.3 nM for the first, 26 nM for the second.

Going from B13 to B14, the “Cell kill IC50, SKBR3” value falls from 14.9 nM to 6.46 nM (2.3-fold).

B15 and B16 are within 1.5-fold of each other in “Cell kill IC50, SKBR3” value: 7.25 nM for the first, 10.6 nM for the second.

B17 and B18 are within 1.5-fold of each other in “Cell kill IC50, SKBR3” value: 9.86 nM for the first, 9.53 nM for the second.

B19 and B20 are within 1.5-fold of each other in “Cell kill IC50, SKBR3” value: 17.8 nM for the first, 18.5 nM for the second.

First: B21
Second: B22
The “Cell kill IC50, SKBR3” value of the first is 12-fold higher: 46.9 nM for the first, 3.85 nM for the second.
